We go through five molecules from publication PMC2926604 (Nucleic Acids Research, 2010).

The labels stand for the following.
T1: Archaeoglobus fulgidus exosome subunit Rrp42 (Archaeoglobus fulgidus, UniProt O29756 1-259)
T1 sequence: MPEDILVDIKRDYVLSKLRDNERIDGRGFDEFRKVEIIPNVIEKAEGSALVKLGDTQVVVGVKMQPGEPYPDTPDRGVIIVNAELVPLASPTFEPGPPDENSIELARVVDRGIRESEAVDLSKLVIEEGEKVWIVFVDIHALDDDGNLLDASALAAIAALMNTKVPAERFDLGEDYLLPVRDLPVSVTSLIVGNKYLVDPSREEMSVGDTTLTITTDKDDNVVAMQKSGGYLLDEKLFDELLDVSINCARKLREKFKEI

T2: Archaeoglobus fulgidus exosome subunit Rrp42 Y70A (Archaeoglobus fulgidus, UniProt O29756 1-259, Y70A)
T2 sequence: T1 sequence with Y70A

T3: Rrp41 (archaeal exosome subunit);Rrp42 Y70A;Csl4 (exosome cap) (Archaeoglobus fulgidus (printed …, UniProt O29757;O29756;O30033 1-258;1-259;1-179, |Y70A|))
T3 sequence 1: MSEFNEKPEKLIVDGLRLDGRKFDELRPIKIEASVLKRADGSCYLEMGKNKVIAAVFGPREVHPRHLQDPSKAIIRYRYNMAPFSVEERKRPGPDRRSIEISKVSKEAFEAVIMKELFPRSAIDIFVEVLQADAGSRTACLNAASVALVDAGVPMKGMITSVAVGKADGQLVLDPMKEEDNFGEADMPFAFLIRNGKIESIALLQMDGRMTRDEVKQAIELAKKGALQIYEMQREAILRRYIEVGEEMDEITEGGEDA
T3 sequence 2: T1 sequence with Y70A
T3 sequence 3: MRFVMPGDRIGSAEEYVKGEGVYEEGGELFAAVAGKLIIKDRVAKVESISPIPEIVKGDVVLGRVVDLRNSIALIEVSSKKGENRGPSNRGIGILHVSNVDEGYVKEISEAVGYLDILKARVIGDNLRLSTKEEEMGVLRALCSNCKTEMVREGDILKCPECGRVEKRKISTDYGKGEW

T4: Rrp41 (archaeal exosome subunit);Rrp42 (archaeal exosome subunit);Csl4 (exosome cap) (Archaeoglobus fulgidus (printed …, UniProt O29757;O29756;O30033 1-258;1-259;1-179, ||))
T4 sequence 1: T3 sequence 1
T4 sequence 2: T1 sequence
T4 sequence 3: T3 sequence 3

B1: Archaeoglobus fulgidus exosome subunit Rrp41 (natural protein)
chain: T3 sequence 1
B2: Archaeoglobus fulgidus exosome subunit Rrp41 D180A (natural protein)
chain: T3 sequence 1 with D180A
B3: Archaeoglobus fulgidus exosome cap subunit Csl4 (natural protein)
chain: T3 sequence 3
B4: Archaeoglobus fulgidus exosome cap subunit Rrp4 (natural protein, UniProt O29758 1-223, looked up)
chain: MRKIVLPGDLLSTNPRAAGYGTYVEGGKVYAKIIGLFDQTETHVRVIPLKGRYTPSVGDVVIGIIREVAANGWAVDIYSPYQAFLPVSENPEMKPNKKPNEVLDIGDAIIAKVLNIDPKMKVTLTMKDRICRPIRFGRIVAINPARVPRVIGKKGSMIKLLKSELDVQIVVGQNGLIWVNGDRRKVSIAEEAIYLIEQEAHTEGLTDRVAEFIKRRKADVGIQ

Substitutions are numbered along the chain they refer to. Names and notes keep the numbering of the source.

The target of data set [1] is T1, Archaeoglobus fulgidus exosome subunit …. As to the kind of experiment: crystal structure.
Data set [2] addresses T2, Archaeoglobus fulgidus exosome subunit …. As to the kind of experiment: crystal structure.
The target in data set [3] is T1, Archaeoglobus fulgidus exosome subunit …. As to the kind of experiment: SAXS.
In data set [4] the target is T3, Rrp41 (archaeal exosome subunit);Rrp42 …. Kind of data set: X-ray crystallography.
Data set [5] addresses T4, Rrp41 (archaeal exosome subunit);Rrp42 …. Kind of data set: X-ray crystallography.
In data set [6] the target is B1. Kind of data set: crystal structure.
Data set [7] concerns the target B2. Kind of data set: SAXS.

Turning to B1, the binding result in data set [1] and in data set [2] was “binds” throughout.
For the molecule B2, the binding result in data set [3] was “binds”.
On to CCCCUC (ssRNA) [6-mer RNA for crystallization], for which the binding result in data set [4] and in data set [5] was “binds” in each case.
For the molecule B3, the binding result in data set [6], in data set [1] and in data set [2] was “binds” throughout.
As for B4, the binding result in data set [3] and in data set [7] was “binds” throughout.
